{
  "source": "patent US20250283129A1",
  "about": "“PROCESS” (Sun Pharmaceutical Industries Australia Pty Limited, priority 2021, published 2025)",
  "key": {"codeine": {"test_system": "codeine", "assay": "Whole cell biotransformation of codeine to morphine by E. coli cells expressing CODM variants", "format": "cell-based"}, "thebaine": {"test_system": "thebaine", "assay": "Whole cell biotransformation of thebaine to oripavine by E. coli cells expressing CODM variants", "format": "cell-based"}},
  "data": [
    {"molecule": "15K+M360I: codeine 3-O-demethylase with amino acid substitutions I5K and M360I (protein, listed as Papaver somniferum) METPKLIKLGNGLSIPSVQELAKLTLAEIPSRYTCTGESPLNNIGASVTDDETVPVIDLQNLLSPEPVVGKLELDKLHSACKEWGFFQLVNHGVDALLMDNIKSEIKGFFNLPMNEKTKYGQQDGDFEGFGQPYIESEDQRLDWTEVFSMLSLPLHLRKPHLFPELPLPFRETLESYLSKMKKLSTVVFEMLEKSLQLVEIKGMTDLFEDGLQTMRMNYYPPCPRPELVLGLTSHSDFSGLTILLQLNEVEGLQIRKEERWISIKPLPDAFIVNVGDILEIMTNGIYRSVEHRAVVNSTKERLSIATFHDSKLESEIGPISSLVTPETPALFKRGRYEDILKENLSRKLDGKSFLDYMRI", "values": [
      {"measurement": "increase in morphine yield relative to the WT CODM strain", "setting": "codeine; Example 4, morphine measured after 15 minutes", "result": 2.3, "unit": "×"},
      {"measurement": "speed of biotransformation with codeine as substrate (in words)", "setting": "codeine; time course over two hours", "result": "faster than the WT CODM control"},
      {"measurement": "yield of morphine", "setting": "codeine; time course, after one hour", "result": "~94", "unit": "%"},
      {"measurement": "increase in oripavine yield relative to the WT CODM strain", "setting": "thebaine; Example 4, oripavine measured after 2 hours", "result": 2.76, "unit": "×"},
      {"measurement": "speed of biotransformation with thebaine as substrate (in words)", "setting": "thebaine; time course over twenty-four hours", "result": "performed the fastest biotransformation"},
      {"measurement": "yield of thebaine to oripavine", "setting": "thebaine; time course, after ~five hours", "result": "~95", "unit": "%"}
    ]}
  ]
}
